The record followed here is FireProtDB.

Values joined by “and” are separate entries in the source; they are usually repeats but may differ in a detail not shown here. Equal entries are not always repeated.

The chains are these.
B1: Protein GrpE, Q65H53 (parent)
chain: MAEEKQNEELNEQEELNETEAETAEAEQTAAEADAPAEETQTEMLEKQLKELQERLEEKENKLLRVQADFENYKRRARLDLEAAEKYRSQRIISDLLPALDNFERALQIDPDNEQTKSLLQGMEMVHRQILEALKNEGVEQIPSVGEQFDPNMHQAVMQVEDEAYESNAVVEELQKGYKLKDRVIRPSMVKVNQ
B2: Triosephosphate isomerase, glycosomal, P04789 (parent)
chain: MSKPQPIAAANWKCNGSQQSLSELIDLFNSTSINHDVQCVVASTFVHLAMTKERLSHPKFVIAAQNAIAKSGAFTGEVSLPILKDFGVNWIVLGHSERRAYYGETNEIVADKVAAAVASGFMVIACIGETLQERESGRTAVVVLTQIAAIAKKLKKADWAKVVIAYEPVWAIGTGKVATPQQAQEAHALIRSWVSSKIGADVAGELRILYGGSVNGKNARTLYQQRDVNGFLVGGASLKPEFVDIIKATQ
B3: Glutamate dehydrogenase, P96110 (parent)
chain: MPEKSLYEMAVEQFNRAASLMDLESDLAEVLRRPKRVLIVEFPVRMDDGHVEVFTGYRVQHNVARGPAKGGIRYHPDVTLDEVKALAFWMTWKTAVMNLPFGGGKGGVRVDPKKLSRNELERLSRRFFSEIQVIIGPYNDIPAPDVNTNADVMAWYMDTYSMNVGHTVLGIVTGKPVELGGSKGREEATGRGVKVCAGLAMDVLGIDPKKATVAVQGFGNVGQFAALLISQELGSKVVAVSDSRGGIYNPEGFDVEELIRYKKEHGTVVTYPKGERITNEELLELDVDILVPAALEGAIHAGNAERIKAKAVVEGANGPTTPEADEILSRRGILVVPDILANAGGVTVSYFEWVQDLQSFFWDLDQVRNALEKMMKGAFNDVMKVKEKYNVDMRTAAYILAIDRVAYATKKRGIYP
B4: Subtilisin-chymotrypsin inhibitor-2A, P01053 (parent)
chain: MSSVEKKPEGVNTGAGDRHNLKTEWPELVGKSVEEAKKVILQDKPEAQIIVLPVGTIVTMEYRIDRVRLFVDKLDNIAQVPRVG
B5: Serine hydroxymethyltransferase, P0A825 (parent)
chain: MLKREMNIADYDAELWQAMEQEKVRQEEHIELIASENYTSPRVMQAQGSQLTNKYAEGYPGKRYYGGCEYVDIVEQLAIDRAKELFGADYANVQPHSGSQANFAVYTALLEPGDTVLGMNLAHGGHLTHGSPVNFSGKLYNIVPYGIDATGHIDYADLEKQAKEHKPKMIIGGFSAYSGVVDWAKMREIADSIGAYLFVDMAHVAGLVAAGVYPNPVPHAHVVTTTTHKTLAGPRGGLILAKGGSEELYKKLNSAVFPGGQGGPLMHVIAGKAVALKEAMEPEFKTYQQQVAKNAKAMVEVFLERGYKVVSGGTDNHLFLVDLVDKNLTGKEADAALGRANITVNKNSVPNDPKSPFVTSGIRVGTPAITRRGFKEAEAKELAGWMCDVLDSINDEAVIERIKGKVLDICARYPVYA
B6: Chaperone Ric-8A, Q5E9J8 (parent)
chain: MEPRAVADALETGEEDVVMEALRAYNRENSQSFTFDDAQQEDRKRLAKLLVSVLEQGLPPSRRVIWLQSIRILSRDRSCLDSFTSRRSLQALACYAGISASQGSVPEPLNMDVVLESLKCLCNLVLSSPVAQALAAEAGLVVRLAERVGLCRQSSFPHDVQFFDLRLLFLLTALRTDVRQQLFQELQGVRLLTRALELTLGMTEGERHPELLPPQETERAMEILKVLFNITFDSIKREVDEEDAALYRHLGTLLRHCVMLAAAGDRTEELHGHAVNLLGNLPVKCLDVLLTLEPHEGSLEFLGVNMDVIRVLLSFMEKRLHQTHRLKESVAPVLSVLTECARMHRPARKFLKAQVLPPLRDVRTRPEVGELLRNKLVRLMTHLDTDVKRVAAEFLFVLCSESVPRFIKYTGYGNAAGLLAARGLMAGGRPEGQYSEDEDTDTDEYKEAKASINPVTGRVEEKPPNPMEGMTEEQKEHEAMKLVNMFDKLSRHRVIQPMGMSPRGQLTSLQDAMCETMEGQLSSDPDSDPD
B7: Barstar, P11540 (parent)
chain: MKKAVINGEQIRSISDLHQTLKKELALPEYYGENLDALWDCLTGWVEYPLVLEWRQFEQSKQLTENGAESVLQVFREAKAEGCDITIILS
B8: Pyrrolidone-carboxylate peptidase, O73944 (parent)
chain: MKVLVTGFEPFGGEKINPTERIAKDLDGIKIGDAQVFGRVLPVVFGKAKEVLEKTLEEIKPDIAIHVGLAPGRSAISIERIAVNAIDARIPDNEGKKIEDEPIVPGAPTAYFSTLPIKKIMKKLHERGIPAYISNSAGLYLCNYVMYLSLHHSATKGYPKMSGFIHVPYIPEQIIDKIGKGQVPPSMCYEMELEAVKVAIEVALEELL

Variants of B1 are the subject of one data set. As to conditions: Bacillus licheniformis (strain ATCC 14580 / DSM 13 / JCM 2505 / CCUG 7422 / NBRC 12200 / NCIMB 9375 / NCTC 10341 / NRRL NRS-1264 / Gibson 46…; pH 7; Thermal; CD; Hepes 10 mM; reversible: Yes; whole UniProt chain shown.
With L52P, the melting temperature (Tm) (as a rule, the temperature at the midpoint of the melting transition) is 40.1 °C; the “change of melting temperature, mutant - wild type (higher = more stable)” value (shortened to “change of melting temperature, mutant”) is -11.9 °C; the “unfolding enthalpy (van 't Hoff)” value was 37.5 kcal/mol. The like results for L134H were, in that order, 43.2 °C, -8.8 °C and 21 kcal/mol.

The variants in the next data set derive from B2. As to conditions: Trypanosoma brucei brucei; pH 7; Thermal; CD; 3-(N-morpholino)propanesulfonic acid/dithiothreitol 20 mM/0.02 mM; EDTA 0.02 mM; structure 3TIM; whole UniProt chain shown.
Turning to R191S, the midpoint of thermal melting (Tm) was found to be 51.6 °C. The same measure, in the same setting: under R191A stands 47.3 °C. For the variant D227A, the Tm worked out at 48.7 °C. The same measure, in the same setting: under D227N stands 49.3 °C.

Still in this data set, the particulars now being: Trypanosoma brucei brucei; pH 7.4; Thermal; CD; MOPS 20 mM; EDTA 1 mM; reversible: no; structure 1TPE; whole UniProt chain shown.
As for C14F, the Tm turned out to be 46.5 °C and the “change of melting temperature, mutant” value is -4.9 °C.

The same data set, now with this note: Trypanosoma brucei brucei; pH 7; Thermal; CD; MOPS 20 mM; reversible: no; structure 1TPE; whole UniProt chain shown.
For the variant T75R G76Q, the Tm is 52 °C and the “change of melting temperature, mutant” value is -5 °C.

Variants of B3 are the subject of the next data set. As to conditions: Thermotoga maritima (strain ATCC 43589 / DSM 3109 / JCM 10099 / NBRC 100826 / MSB8); pH 7.4; Thermal; DSC; Sodium phosphate 20 mM; reversible: no; structure 1B26; whole UniProt chain shown.
Consider N118R, for which the Tm worked out at 88.7 °C.

The variants in another data set derive from B4. As to conditions: Hordeum vulgare; pH 6.3; 25 °C; GdnHCl; Fluorescence; MES 50 mM; structure 2CI2; whole UniProt chain shown.
On to L21M, for which the unfolding free energy was 7.3 kcal/mol. The same measure, in the same setting: next, P53E F70A: 2.61 kcal/mol.

The same data set, now with this note: Hordeum vulgare; pH 7; 30 °C; GdnHCl; Fluorescence; MOPS 50 mM; structure 2CI2; whole UniProt chain shown.
On to I40L, for which the “ddG of mutation (higher = less stable)” value was 1.96 kcal/mol, the denaturant m value came out at 1.92 kcal/mol/M and the unfolding free energy was found to be 5.09 kcal/mol. The like results for I40V were, in that order, 1.17 kcal/mol, 1.92 kcal/mol/M and 5.88 kcal/mol.

Still in this data set, the particulars now being: Hordeum vulgare; pH 4.2; 50 °C; GdnHCl; Fluorescence; Sodium acetate 50 mM; reversible: yes; structure 2CI2; whole UniProt chain shown.
For the variant R68A, the “ddG of mutation (higher = less stable)” value amounted to 1.4 kcal/mol and the unfolding free energy amounted to 4.1 kcal/mol.

In the next data set the parent is B5. As to conditions: Escherichia coli (strain K12); pH 7.5; 30 °C; Urea; Fluorescence; Tris-HCl 20 mM; structure 1DFO; whole UniProt chain shown.
Consider W385F, for which the unfolding free energy is 4 kcal/mol. Same read-out and setting: next, W16Y: 3.7 kcal/mol. On the same count and under the same terms, next, W16F W183F: 5.9 kcal/mol.

Still in this data set, the particulars now being: Escherichia coli (strain K12); pH 7.5; 30 °C; Urea; Fluorescence; Tris-HCl 20 mM; transition: 3; structure 1DFO; whole UniProt chain shown.
Regarding W183F W385F, the unfolding free energy is 4.2 kcal/mol and 5.5 kcal/mol.

In another data set the parent is B6. As to conditions: Bos taurus; pH 7.5; Thermal; DSF; Tris-HCl; KCl; structure 6N85; whole UniProt chain shown.
In the case of A173W, the midpoint of thermal melting (Tm) was 45.6 °C and the “change of melting temperature, mutant” value was -1.2 °C.

On to N123E, for which the Tm amounted to 46.7 °C and the “change of melting temperature, mutant” value is -0.1 °C. The corresponding values for R75M are 45.9 °C and -0.9 °C. With F169R, the Tm turned out to be 45.6 °C and the “change of melting temperature, mutant” value was -1.2 °C.

In a further data set the parent is B7. As to conditions: Bacillus amyloliquefaciens; pH 8; 10 °C; Urea; CD; Tris Cl 50 mM; KCl 100 mM; structure 1BTA; whole UniProt chain shown.
On to L17V, for which the “ddG of mutation (higher = less stable)” value is 1.1 kcal/mol and the unfolding free energy amounted to 1.9 kcal/mol.

As to L35V, the “ddG of mutation (higher = less stable)” value is 1.1 kcal/mol and the unfolding free energy amounted to 1.9 kcal/mol. Take L52V: the “ddG of mutation (higher = less stable)” value is 0.6 kcal/mol and the unfolding free energy was determined as 2.4 kcal/mol. The like results for I6V were, in that order, 1 kcal/mol and 2 kcal/mol.

Staying with this data set, now noted: Bacillus amyloliquefaciens; pH 7; Thermal; CD; phosphate 20 mM; structure 1A19; whole UniProt chain shown.
Regarding H18Q, the Tm is 65 °C.

The variants in the next data set derive from B8. As to conditions: Pyrococcus furiosus (strain ATCC 43587 / DSM 3638 / JCM 8422 / Vc1); pH 7; 60 °C; GdnHCl; CD; Tris-HCl 20 mM; reversible: yes; structure 1IOF; whole UniProt chain shown.
With C142S C188S, the denaturant m value was determined as 4.16 kcal/mol/M, the “denaturant midpoint (higher = more stable)” value was determined as 3.4 M and the unfolding free energy is 13.5 kcal/mol.
